Experimental data reported in patent US11319374B2, “Inhibitors of prototypic galectin dimerization and uses thereof” (INSTITUT NATIONAL DE LA RECHERCHE SCIENTIFIQUE, priority 2015, dated 2022).

Assays:
[1] = tested on: Jurkat T cells; test: FITC-labeled hGal-7 binding on Jurkat T cells, flow cytometry; type: cell-based; settings: FITC-labeled hGal-7 0.1 μM pre-incubated with peptide, FIG. 4
Description: FITC conjugation and hGal-7 binding assay. To assess hGal-7 binding onto Jurkat T cells, 5 μL of a 1.25 mg/mL fluorescein isothiocyanate (FITC)/DMSO solution was added to 300 μL of 1.7 μg/μL recombinant hGal-7 in a 0.1 M NaHCO3 pH 9.2 solution and incubated for 1 h at room temperature on a roller. FITC-labeled hGal-7 was then purified using a PD-10 Sepharose® column (GE healthcare) and eluted with PBS containing 0.01% [v/v] sodium azide. FITC-labeled hGal-7 (0.1 μM) was then pre-incubated with hGal-7(129-135) (or related peptides) in 20 mM potassium phosphate buffer pH 7.1 for 1 h at 4° C. Jurkat cells (5×10^5 cells per sample) were harvested in PBS-0.01% [v/v] sodium azide and incubated for 30 min on ice with the FITC-labeled hGal-7 with and without peptides. Cells were then washed with PBS-0.01% [v/v] sodium azide and resuspended in 400 μL of the same buffer and analyzed on a FACSCalibur® (BD Biosciences®).
(§1) It was thus tested whether hGal-7(129-135) could modulate the binding of hGal-7 on Jurkat T cells, a cell model that is commonly used to test the pro-apoptotic activity of galectins. For this purpose, recombinant hGal-7 was labeled with fluorescein isothiocyante (FITC) and its binding on the surface of Jurkat T cells was measured by flow cytometry in absence or presence of increasing concentrations of hGal-7(129-135). […]

[2] = biological target: T1, hGal-7 homodimer (Homo sapiens, UniProt P47929); test: hGal-7 homodimer disruption, low-SDS native gel electrophoresis / Western blotting; type: biochemical; settings: recombinant hGal-7 0.5 μM
T1 construct: made in house; host or cells: E. coli BL21 (DE3)
Description: (§2) Production of recombinant hGal-7 and hGal-1. Human Gal-7 cDNA was cloned into pET-22b(+) using Ndel and HindIII restriction enzymes. Human pET-Gal-1 vector was generously donated by Dr. S. Sato (McGill University, QC, Canada). The proteins were produced in E. coli BL21 (DE3) cells at 37° C. Isopropyl p-D-1-thiogalactopyranoside (IPTG) (1 mM) was added to the bacterial culture at OD600nm=0.6-0.7 and then incubated for 4 h at 37° C. to allow protein production. Bacterial pellets were resuspended in lysis buffer (0.7 mg/mL lysozyme, 10 mM Tris pH 8, 100 mM NaCl, 1 mM EDTA, 1 mM DTT and a protease inhibitor cocktail) and then incubated for 1 h at 37° C. prior to centrifugation for 30 min at 15,000×g (4° C.). The supernatant was then filtered with 500 mL bottle top filter ([…]) (Corning®, New York, N.Y., USA) and then ran through a lactose-agarose column (Sigma®, St. Louis, Mo., USA). The protein was eluted in 1 mL fractions with 150 mM lactose solution. Purified fractions were analyzed by SDS-PAGE. The hGal-7 was then concentrated and purified using Centrifugal filter units (Amicon® Ultra-15, 10K) (EMD®, Etobicoke, ON) in 20 mM potassium phosphate at pH 7.1. All subsequent experiments with the recombinant proteins were performed in the same buffer solution unless mentioned otherwise. Brilliant Coomassie blue was purchased from BioRad® (Bio-Rad Laboratories®, Mississauga, ON, Canada). The recombinant human Bcl-2 protein fragment was purchased from Abcam® (Abcam®, Cambridge, UK, Cat #ab73696).
Western blotting. For the apoptosis tests, whole-cell extracts were homogenized and resuspended in RIPA buffer (Thermo Fisher Scientific®, Rockford, Ill., USA) containing protease inhibitors (Roche®, Laval, QC, Canada). Equal amounts of whole-cell extracts (25 μg) were separated on SDS-PAGE and transferred onto nitrocellulose membranes (Bio-Rad Laboratories®). The membranes were first blocked with 5% milk [w/v] in TBS/0.5% Tween® 20 [v/v] for 1 h at room temperature and subsequently blotted overnight in a solution of TBS containing 3% BSA [w/v] and 0.5% Tween 20 [v/v]. The following antibodies were used: a rabbit anti-Poly-(ADP-ribose) polymerase (PARP)-1 (p25) polyclonal antibody (1:5000; Epitomics®, Burlingame, Calif., USA) and a mouse anti-β-actin (1:10000; Sigma-Aldrich®, St-Louis, Mo., USA). Secondary antibodies consisted of horseradish peroxidase-conjugated donkey anti-rabbit (GE Healthcare®, Buckinghamshire, England) and sheep anti-mouse (GE Healthcare®) IgG. Detection was performed using the enhanced chemiluminescence method (GE Healthcare®). For the recombinant protein tests, each peptide was dissolved and maintained in 20 mM potassium phosphate at pH 7.1. The recombinant proteins and peptide dilutions were pre-incubated for 1 h at 4° C. prior to gel migration. The native polyacrylamide gel was made without SDS to allow molecular weight differentiation between the dimer and monomer. The following antibodies were used: a goat anti-Gal-7 antibody (1:10000; R&D Systems®, Minneapolis, Minn., USA), a mouse anti-Gal-1 antibody (1:10000; Proteintech®, Chicago, Ill., USA) and a rabbit anti-Bcl-2 antibody (1:1000; Abeam®, Cambridge, UK). Secondary antibodies consisted of donkey anti-goat (R&D Systems®) or sheep anti-mouse and sheep anti-rabbit (GE Healthcare®) IgG. Detection was performed as described above.
To determine whether these peptides could inhibit the formation of the hGal-7 homodimer, recombinant hGal-7 (0.5 μM) was incubated with increasing concentrations of hGal-7(13-25), hGal-7(85-102), hGal-7(95-108) or hGal 7(129-135) and the formation of homodimers was measured. To measure the ability of the peptides to disrupt the formation of hGal-7 dimers, a mild denaturing (low SDS) native gel electrophoresis, a commonly used approach to visualize monomer-dimer equilibrium, was used (FIG. 1A and FIG. 6).

[3] = biological target: T2, recombinant human Gal-1 (hGal-1) (Homo sapiens, UniProt P09382); test: hGal-1 dimer disruption (galectin selectivity control), low-SDS Western blotting; type: biochemical; settings: recombinant hGal-1, FIG. 2C
T2 construct: made in house; host or cells: E. coli BL21 (DE3)
Description: as §2, with “The hGal-7 was then concentrated and purified using Centrifugal filter units (Amicon® Ultra-15, 10K) (EMD®, Etobicoke, ON) in 20 mM potassium phosphate at pH 7.1. All subsequent experiments with the recombinant proteins were performed in the same buffer solution unless mentioned otherwise. Brilliant Coomassie blue was purchased from BioRad® (Bio-Rad Laboratories®, Mississauga, ON, Canada). The recombinant human Bcl-2 protein fragment was purchased from Abcam® (Abcam®, Cambridge, UK, Cat #ab73696).” left out
To determine whether these peptides could inhibit the formation of the hGal-7 homodimer, recombinant hGal-7 (0.5 μM) was incubated with increasing concentrations of hGal-7(13-25), hGal-7(85-102), hGal-7(95-108) or hGal 7(129-135) and the formation of homodimers was measured. […]

[4] = tested on: Jurkat T cells; test: hGal-7-induced apoptosis of Jurkat T cells, PARP-1 cleavage by Western blotting; type: cell-based; settings: 4 h at 37° C., serum-free RPMI, FIG. 5A
Description: Western blotting. For the apoptosis tests, whole-cell extracts were homogenized and resuspended in RIPA buffer (Thermo Fisher Scientific®, Rockford, Ill., USA) containing protease inhibitors (Roche®, Laval, QC, Canada). Equal amounts of whole-cell extracts (25 μg) were separated on SDS-PAGE and transferred onto nitrocellulose membranes (Bio-Rad Laboratories®). The membranes were first blocked with 5% milk [w/v] in TBS/0.5% Tween® 20 [v/v] for 1 h at room temperature and subsequently blotted overnight in a solution of TBS containing 3% BSA [w/v] and 0.5% Tween 20 [v/v]. The following antibodies were used: a rabbit anti-Poly-(ADP-ribose) polymerase (PARP)-1 (p25) polyclonal antibody (1:5000; Epitomics®, Burlingame, Calif., USA) and a mouse anti-β-actin (1:10000; Sigma-Aldrich®, St-Louis, Mo., USA). Secondary antibodies consisted of horseradish peroxidase-conjugated donkey anti-rabbit (GE Healthcare®, Buckinghamshire, England) and sheep anti-mouse (GE Healthcare®) IgG. […]
as §1

[5] = 20 mM potassium phosphate pH 7.1, FIG. 2A

T1 sequence (P47929 2-136 limits assumed): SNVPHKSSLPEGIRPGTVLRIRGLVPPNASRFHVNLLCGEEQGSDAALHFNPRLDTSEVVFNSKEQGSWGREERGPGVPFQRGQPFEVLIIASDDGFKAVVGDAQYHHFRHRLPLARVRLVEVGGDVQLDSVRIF
T2 sequence (P09382 2-135 limits assumed): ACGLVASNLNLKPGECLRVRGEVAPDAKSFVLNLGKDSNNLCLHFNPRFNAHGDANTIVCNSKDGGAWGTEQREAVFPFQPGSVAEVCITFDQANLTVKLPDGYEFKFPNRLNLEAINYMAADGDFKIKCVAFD

Substance: H-Leu-Asp-Ser-Val-Arg-Ile-Phe-NH2 (H-LDSVRIF-NH2; listed as Homo sapiens) [hGal-7(129-135), peptide corresponding to residues 129-135 of hGal-7]
- fluorescent intensity of Jurkat T cells due to FITC-labeled hGal-7 binding [1]: increased the fluorescent intensity of Jurkat T cells in a concentration-dependent manner
- disruption of hGal-7 homodimers in the presence of lactose ([2]; 0.1 mM lactose solution, FIG. 2D): not inhibited by the presence of lactose
- concentration at which consistent decrease of hGal-7 homodimers starts [2, 5]: 10 µM
- saturation dose for decrease of hGal-7 homodimers [2, 5]: 100 µM
- effect on hGal-1 dimer [3]: No such effect was observed
- inhibition of hGal-7-induced apoptosis, PARP-1 cleavage [4]: inhibited the ability of hGal-7 to induce apoptosis in Jurkat T cells
